What was measured:
[1] = system: AncSZ; experiment: phosphorylation enrichment, bacterial display (enrichment ratio); higher = better substrate or ligand; peptides without Tyr show the background
[2] = biological target: EPHB1 (UniProt P54762); experiment: as above
[3] = biological target: EPHB2 (UniProt P29323); experiment: as above
[4] = biological target: FGFR1 (UniProt P11362); experiment: as above
[5] = biological target: FGFR3 (UniProt P22607); experiment: as above
[6] = system: Fer (mouse); experiment: as above
[7] = biological target: Fes (UniProt P07332); experiment: as above
[8] = biological target: Fyn (UniProt P06241); experiment: as above
[9] = biological target: Hck (UniProt P08631); experiment: as above
[10] = biological target: Jak2 (UniProt O60674); experiment: as above
[11] = biological target: MERTK (UniProt Q12866); experiment: as above
[12] = system: c-Abl (mouse); experiment: as above
[13] = system: c-Src; experiment: as above
[14] = biological target: Grb2 SH2 (UniProt P62993); experiment: SH2 binding enrichment of the phosphorylated peptide, bacterial display (enrichment ratio); higher = better substrate or ligand; peptides without Tyr show the background
[15] = biological target: SHP2-C SH2; experiment: as above
[16] = biological target: c-Src SH2; experiment: as above
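Throughout, for SH2 binding enrichment of the phosphorylated peptide, bacterial display: peptide library displayed on the E. coli surface as eCPX fusions, selected cells deep-sequenced, score is each peptide's frequency after selection divided by its frequency in the input.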
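Throughout, for phosphorylation enrichment, bacterial display: 11-residue human phosphosite peptides and single-mutation variants displayed on the E. coli surface, counted by deep sequencing, each peptide's frequency after selection divided by its frequency in the unselected input library; frequency after pTyr selection over input frequency; kinase dosed for 20-30% of maximal phosphorylation in three min.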

MERTK, sequence (Q12866 whole entry, looked up): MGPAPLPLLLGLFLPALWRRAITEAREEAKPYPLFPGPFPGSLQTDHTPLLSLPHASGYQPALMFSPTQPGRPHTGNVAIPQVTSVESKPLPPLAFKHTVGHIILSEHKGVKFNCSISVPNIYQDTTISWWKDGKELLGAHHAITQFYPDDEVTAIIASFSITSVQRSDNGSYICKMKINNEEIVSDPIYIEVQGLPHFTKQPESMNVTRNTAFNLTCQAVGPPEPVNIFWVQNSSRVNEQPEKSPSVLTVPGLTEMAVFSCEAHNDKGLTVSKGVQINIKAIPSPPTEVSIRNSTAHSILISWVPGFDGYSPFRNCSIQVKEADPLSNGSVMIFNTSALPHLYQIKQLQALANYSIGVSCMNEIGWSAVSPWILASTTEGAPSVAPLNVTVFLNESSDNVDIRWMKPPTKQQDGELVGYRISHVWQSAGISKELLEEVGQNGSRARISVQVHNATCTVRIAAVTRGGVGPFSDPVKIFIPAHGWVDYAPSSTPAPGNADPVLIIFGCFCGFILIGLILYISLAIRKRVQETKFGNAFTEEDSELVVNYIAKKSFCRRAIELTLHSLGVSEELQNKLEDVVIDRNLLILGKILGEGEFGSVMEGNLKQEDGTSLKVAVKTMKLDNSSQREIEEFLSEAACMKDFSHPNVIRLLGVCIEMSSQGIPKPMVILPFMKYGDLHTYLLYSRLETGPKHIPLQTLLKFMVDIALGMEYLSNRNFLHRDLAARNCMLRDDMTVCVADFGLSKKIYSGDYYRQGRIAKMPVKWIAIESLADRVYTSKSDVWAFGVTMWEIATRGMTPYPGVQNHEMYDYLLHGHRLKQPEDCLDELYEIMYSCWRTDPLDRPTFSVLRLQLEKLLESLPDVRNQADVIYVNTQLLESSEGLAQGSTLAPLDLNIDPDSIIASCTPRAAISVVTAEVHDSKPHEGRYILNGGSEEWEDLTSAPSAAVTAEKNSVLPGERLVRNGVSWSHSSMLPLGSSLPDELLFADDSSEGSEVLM
EPHB1, sequence (P54762 whole entry, looked up): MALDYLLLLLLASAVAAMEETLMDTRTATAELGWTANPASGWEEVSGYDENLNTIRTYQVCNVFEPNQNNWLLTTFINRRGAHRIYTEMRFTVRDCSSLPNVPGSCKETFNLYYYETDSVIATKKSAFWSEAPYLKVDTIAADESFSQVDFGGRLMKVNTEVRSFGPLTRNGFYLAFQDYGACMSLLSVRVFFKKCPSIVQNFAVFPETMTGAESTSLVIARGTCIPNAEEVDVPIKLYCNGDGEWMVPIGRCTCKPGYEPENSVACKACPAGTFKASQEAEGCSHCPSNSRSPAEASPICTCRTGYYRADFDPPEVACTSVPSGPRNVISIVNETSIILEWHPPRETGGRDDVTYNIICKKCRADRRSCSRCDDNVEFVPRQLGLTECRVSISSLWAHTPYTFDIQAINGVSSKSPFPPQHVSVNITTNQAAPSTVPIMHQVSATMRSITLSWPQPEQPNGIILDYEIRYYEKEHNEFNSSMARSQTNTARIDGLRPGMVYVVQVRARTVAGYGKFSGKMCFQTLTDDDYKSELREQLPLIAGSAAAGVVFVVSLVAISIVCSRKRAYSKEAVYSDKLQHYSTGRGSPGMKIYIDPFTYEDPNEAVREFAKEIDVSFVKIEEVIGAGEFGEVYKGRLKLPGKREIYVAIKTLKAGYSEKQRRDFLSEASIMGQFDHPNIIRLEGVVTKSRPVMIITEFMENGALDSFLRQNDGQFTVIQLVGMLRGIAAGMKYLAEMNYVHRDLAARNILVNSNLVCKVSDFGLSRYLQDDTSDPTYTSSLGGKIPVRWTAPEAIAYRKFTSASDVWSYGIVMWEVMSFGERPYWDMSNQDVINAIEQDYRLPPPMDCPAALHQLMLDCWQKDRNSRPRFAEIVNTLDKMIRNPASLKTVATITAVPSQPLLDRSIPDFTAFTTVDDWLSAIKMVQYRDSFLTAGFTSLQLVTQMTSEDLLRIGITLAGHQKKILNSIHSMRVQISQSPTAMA
Jak2, sequence (O60674 whole entry, looked up): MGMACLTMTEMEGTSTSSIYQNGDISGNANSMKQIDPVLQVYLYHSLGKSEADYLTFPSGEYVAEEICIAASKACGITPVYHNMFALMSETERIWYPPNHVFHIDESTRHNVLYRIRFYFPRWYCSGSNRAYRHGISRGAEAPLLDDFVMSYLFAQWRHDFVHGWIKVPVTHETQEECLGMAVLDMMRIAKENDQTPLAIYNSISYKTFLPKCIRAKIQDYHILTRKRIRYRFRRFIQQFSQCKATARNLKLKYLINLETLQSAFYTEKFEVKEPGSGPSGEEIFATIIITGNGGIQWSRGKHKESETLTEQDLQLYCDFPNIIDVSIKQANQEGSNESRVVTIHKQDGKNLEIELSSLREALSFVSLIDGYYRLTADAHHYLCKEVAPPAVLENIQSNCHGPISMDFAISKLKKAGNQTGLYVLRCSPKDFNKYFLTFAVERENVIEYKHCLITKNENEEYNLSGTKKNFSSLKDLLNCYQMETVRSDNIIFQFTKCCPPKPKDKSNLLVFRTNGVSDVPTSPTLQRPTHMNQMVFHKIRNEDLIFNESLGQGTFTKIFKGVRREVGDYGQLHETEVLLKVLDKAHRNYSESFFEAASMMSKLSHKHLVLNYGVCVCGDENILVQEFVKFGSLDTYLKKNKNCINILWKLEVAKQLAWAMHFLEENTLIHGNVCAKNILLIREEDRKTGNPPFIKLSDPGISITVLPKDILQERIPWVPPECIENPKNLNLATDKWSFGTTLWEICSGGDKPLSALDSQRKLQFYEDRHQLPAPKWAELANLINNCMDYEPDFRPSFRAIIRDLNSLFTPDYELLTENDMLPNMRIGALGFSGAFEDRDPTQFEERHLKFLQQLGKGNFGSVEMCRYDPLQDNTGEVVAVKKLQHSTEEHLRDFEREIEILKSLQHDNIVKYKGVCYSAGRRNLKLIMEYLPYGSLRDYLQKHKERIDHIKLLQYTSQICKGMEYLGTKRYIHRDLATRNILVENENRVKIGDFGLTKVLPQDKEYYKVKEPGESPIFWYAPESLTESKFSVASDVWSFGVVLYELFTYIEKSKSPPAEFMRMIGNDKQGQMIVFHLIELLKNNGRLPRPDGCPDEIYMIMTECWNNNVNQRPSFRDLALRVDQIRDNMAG
Hck, sequence (P08631 whole entry, looked up): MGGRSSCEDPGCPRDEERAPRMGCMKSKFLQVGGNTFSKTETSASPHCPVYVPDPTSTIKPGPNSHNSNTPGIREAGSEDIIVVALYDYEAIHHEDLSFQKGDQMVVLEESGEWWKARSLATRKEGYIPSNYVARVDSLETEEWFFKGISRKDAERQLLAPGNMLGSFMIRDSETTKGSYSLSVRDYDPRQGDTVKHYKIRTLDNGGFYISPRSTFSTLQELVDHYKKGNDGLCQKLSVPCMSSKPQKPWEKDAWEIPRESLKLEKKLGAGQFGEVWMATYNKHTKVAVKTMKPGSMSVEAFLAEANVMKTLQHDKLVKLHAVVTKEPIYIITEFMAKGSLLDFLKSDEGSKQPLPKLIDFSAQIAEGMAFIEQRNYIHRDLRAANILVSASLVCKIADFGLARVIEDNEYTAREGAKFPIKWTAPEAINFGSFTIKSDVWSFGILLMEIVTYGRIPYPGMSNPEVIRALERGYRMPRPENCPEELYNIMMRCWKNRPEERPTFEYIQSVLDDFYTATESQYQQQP
Fes, sequence (P07332 whole entry, looked up): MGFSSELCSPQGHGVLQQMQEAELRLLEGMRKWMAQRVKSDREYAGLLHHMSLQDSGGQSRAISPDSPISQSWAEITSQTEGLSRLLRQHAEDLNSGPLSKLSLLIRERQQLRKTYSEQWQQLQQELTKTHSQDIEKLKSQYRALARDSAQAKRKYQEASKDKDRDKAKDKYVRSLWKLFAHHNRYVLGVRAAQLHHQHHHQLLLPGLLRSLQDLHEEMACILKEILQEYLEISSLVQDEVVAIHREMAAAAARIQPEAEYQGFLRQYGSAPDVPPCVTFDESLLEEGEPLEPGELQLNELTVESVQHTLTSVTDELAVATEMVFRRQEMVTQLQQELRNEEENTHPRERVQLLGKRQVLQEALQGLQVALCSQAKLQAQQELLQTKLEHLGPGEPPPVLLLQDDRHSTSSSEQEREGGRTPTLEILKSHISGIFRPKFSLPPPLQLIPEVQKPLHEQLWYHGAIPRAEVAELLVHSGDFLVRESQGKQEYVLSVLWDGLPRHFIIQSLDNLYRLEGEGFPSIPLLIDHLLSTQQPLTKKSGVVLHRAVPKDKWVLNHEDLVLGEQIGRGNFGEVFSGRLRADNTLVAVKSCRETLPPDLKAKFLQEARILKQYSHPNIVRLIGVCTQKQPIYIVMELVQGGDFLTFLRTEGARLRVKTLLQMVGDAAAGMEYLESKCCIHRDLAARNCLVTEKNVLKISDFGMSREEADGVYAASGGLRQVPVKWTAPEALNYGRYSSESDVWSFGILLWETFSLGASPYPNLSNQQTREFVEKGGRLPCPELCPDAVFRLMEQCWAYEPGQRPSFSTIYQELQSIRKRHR
Grb2 SH2, sequence (P62993 whole entry, looked up): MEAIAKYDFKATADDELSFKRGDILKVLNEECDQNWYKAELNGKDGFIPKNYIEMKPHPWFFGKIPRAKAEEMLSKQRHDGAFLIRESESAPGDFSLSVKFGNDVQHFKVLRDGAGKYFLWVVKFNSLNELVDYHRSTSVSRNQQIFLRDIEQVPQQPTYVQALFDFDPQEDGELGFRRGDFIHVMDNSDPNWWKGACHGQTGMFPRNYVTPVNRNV

Sequence | phosphorylation enrichment [1] | phosphorylation enrichment [2] | phosphorylation enrichment [3] | phosphorylation enrichment [4] | phosphorylation enrichment [5] | phosphorylation enrichment [6] | phosphorylation enrichment [7] | phosphorylation enrichment [8] | phosphorylation enrichment [9] | phosphorylation enrichment [10] | phosphorylation enrichment [11] | phosphorylation enrichment [12] | phosphorylation enrichment [13] | SH2 binding enrichment [14] | SH2 binding enrichment [15] | SH2 binding enrichment [16]
TPGPNYCPGYN [USH2A_Y463_R464C] | 0.694 | 0.468 | 0.551 | 0.504 | 0.616 | 0.497 | 1.17 | 0.623 | 0.466 | 0.853 | 0.379 | 0.429 | 0.35 | 1.68 | 0.501 | 0.937
RIVTTYIWERE [DNM2_Y463_R465W] | 1.82 | 0.526 | 0.455 | 0.595 | 0.862 | 0.538 | 1.31 | 0.712 | 0.619 | 0.989 | 0.403 | 0.745 | 0.405 | 1.16 | 0.846 | 0.909
SILAVYSKDIF [PANK2_Y400_N404I_YF] | 0.691 | 0.477 | 0.494 | 0.445 | 0.537 | 0.46 | 0.663 | 1.11 | 0.765 | 0.688 | 2.99 | 0.578 | 1.62 | 1.02 | 0.678 | 0.764
DMGAQYAAASP [ARID1B_Y483] | 0.647 | 0.486 | 0.552 | 0.48 | 0.584 | 0.652 | 0.71 | 0.411 | 0.462 | 0.653 | 0.434 | 0.652 | 0.504 | 0.67 | 0.647 | 0.63
ETAVHYIHDGI [GATD3A_Y250_L248V] | 0.631 | 0.419 | 0.43 | 0.445 | 0.543 | 0.426 | 0.726 | 0.389 | 0.399 | 0.649 | 0.453 | 0.606 | 0.461 | 0.678 | 0.465 | 0.504
MALDRYVASCK [OR2B11_Y127_I130S] | 0.649 | 0.465 | 0.593 | 0.397 | 0.569 | 0.475 | 0.846 | 0.421 | 0.435 | 0.667 | 0.385 | 0.592 | 0.436 | 0.799 | 0.698 | 0.579
KITVIYDGACQ [VWDE_Y1035] | 1.1 | 0.599 | 0.664 | 0.438 | 0.778 | 0.574 | 1.28 | 0.51 | 0.711 | 1.14 | 0.437 | 0.837 | 0.721 | 0.697 | 0.486 | 0.479
RGNKEYEEEKR [LENG1_Y96] | 0.723 | 0.519 | 0.493 | 0.407 | 0.686 | 0.394 | 0.756 | 0.534 | 0.737 | 0.822 | 0.314 | 0.458 | 0.323 | 0.863 | 0.739 | 0.538
NHYKIYNLCAE [PTEN_Y68] | 0.579 | 0.432 | 0.442 | 0.409 | 0.77 | 0.439 | 0.784 | 1.61 | 0.85 | 0.493 | 0.407 | 0.547 | 2.05 | 0.941 | 0.826 | 1.2
CTTIDYNFMCN [TP53_Y234_H233D_YF] | 1.27 | 0.474 | 0.651 | 0.882 | 0.911 | 0.597 | 1.27 | 0.527 | 0.528 | 1.21 | 0.529 | 1.04 | 0.874 | 0.874 | 0.661 | 0.931
DEEDTYTMPST [PTK2_Y407] | 3.8 | 0.528 | 0.627 | 0.568 | 0.776 | 0.691 | 1.29 | 3.77 | 1.83 | 1.25 | 0.657 | 1.12 | 2.94 | 0.869 | 0.563 | 0.469
NIQKKYYRAIL [CHD7_Y1217] | 0.502 | 0.346 | 0.375 | 0.472 | 0.595 | 0.533 | 0.543 | 0.443 | 0.355 | 0.494 | 0.345 | 0.563 | 0.371 | 1.09 | 1.09 | 0.898
LNNIIYRLERA [CUX2_Y1470_V1472L] | 1.67 | 1.24 | 1.37 | 0.907 | 1.19 | 0.812 | 1.37 | 2.59 | 1.01 | 1.27 | 1.1 | 1.31 | 3.45 | 1.62 | 1.84 | 0.557
LAVVDYMRRQK [ATM_Y1915] | 0.674 | 0.285 | 0.337 | 0.373 | 0.437 | 0.374 | 0.655 | 0.413 | 0.453 | 0.605 | 0.513 | 0.604 | 0.553 | 0.675 | 0.652 | 0.531
RLLRGYDQFAF [HLA-B_Y137_H137Y_YF] | 0.885 | 0.505 | 0.725 | 0.617 | 0.627 | 0.696 | 1.21 | 0.591 | 0.664 | 0.785 | 0.645 | 0.798 | 0.542 | 1.16 | 1.25 | 0.999
DAPVVYLGSFR [PRAG1_Y132] | 0.773 | 0.402 | 0.449 | 0.418 | 0.52 | 0.448 | 0.906 | 0.436 | 0.575 | 0.73 | 0.476 | 0.743 | 0.449 | 1.08 | 5.6 | 0.53
CKSIHYDLVFL [COL22A1_Y37_V35I] | 1.49 | 0.751 | 0.755 | 0.651 | 0.895 | 8.93 | 1.55 | 0.574 | 0.686 | 1.36 | 1.51 | 0.936 | 0.562 | 0.736 | 0.573 | 1.06
ITLKGYNLSKS [GNPTAB_Y728] | 0.601 | 0.342 | 0.346 | 0.397 | 0.402 | 0.414 | 0.686 | 0.355 | 0.426 | 0.482 | 0.367 | 0.317 | 0.451 | 0.614 | 0.484 | 0.321
AVLVQYFMEHH [PTPN11_Y80_E76V_YF] | 0.934 | 0.638 | 0.613 | 0.466 | 0.813 | 0.484 | 1.15 | 0.503 | 0.448 | 1.07 | 0.429 | 0.638 | 0.421 | 1.37 | 1.51 | 1.19
GKVADYIPQLA [GLS_Y249] | 0.634 | 0.51 | 0.477 | 0.478 | 0.538 | 0.453 | 0.684 | 0.514 | 0.408 | 0.5 | 0.396 | 0.483 | 0.349 | 0.882 | 0.924 | 0.481
RFLRGYEQDAF [HLA-A_Y137_R138E_YF] | 0.935 | 0.498 | 0.555 | 0.466 | 0.586 | 0.51 | 1.21 | 0.636 | 0.629 | 1.36 | 0.536 | 0.778 | 0.533 | 0.894 | 0.746 | 0.765
TLCLCYKEIEE [ATP8B1_Y658] | 1.63 | 1.05 | 0.825 | 0.592 | 1.05 | 0.704 | 1.96 | 0.521 | 0.733 | 1.36 | 0.618 | 0.886 | 0.624 | 0.921 | 0.937 | 1.29
NFPGGYSGSVK [MCPH1_Y606_L602F] | 0.354 | 0.357 | 0.379 | 0.486 | 0.47 | 0.368 | 0.547 | 0.44 | 0.406 | 0.539 | 0.365 | 0.529 | 0.451 | 0.802 | 0.667 | 0.59
LRKQDYQEILD [SLC35G2_Y403] | 0.995 | 0.632 | 0.379 | 0.629 | 0.708 | 0.434 | 1.17 | 0.529 | 0.47 | 0.999 | 0.364 | 0.629 | 0.468 | 0.82 | 0.606 | 6.76
LLNAIYLSAKW [SERPING1_Y294] | 1.61 | 1.3 | 0.794 | 0.464 | 2.29 | 0.692 | 1.66 | 1.12 | 2.18 | 1.41 | 0.503 | 1.22 | 1.04 | 1.06 | 0.553 | 0.686
KFDLMYAKRAF [TUBA1A_Y399] | 0.905 | 0.535 | 0.536 | 0.465 | 0.589 | 0.442 | 0.921 | 0.434 | 0.463 | 0.667 | 0.414 | 0.544 | 0.409 | 0.802 | 0.548 | 0.444
EKNANYKEGTY [CLRN1_Y171_I168N] | 0.517 | 0.378 | 0.387 | 0.383 | 0.4 | 0.363 | 0.617 | 0.403 | 0.356 | 0.575 | 0.372 | 0.451 | 0.426 | 0.963 | 0.774 | 0.538
FMIISYVLIIR [OR1D2_Y218_V214M] | 0.936 | 0.225 | 0.483 | 0.651 | 0.559 | 0.491 | 0.631 | 0.426 | 0.553 | 0.383 | 0.446 | 0.625 | 0.437 | 2.38 | 1.52 | 1.38
LSVEIYDRREY [ITGB7_Y753] | 1.52 | 0.669 | 0.816 | 0.618 | 0.869 | 0.587 | 1.4 | 0.675 | 2.23 | 0.965 | 0.581 | 0.801 | 0.765 | 0.602 | 0.437 | 0.523
